Test results from the nanobody polyreactivity screen of Harvey et al. (2022).

Assay: yeast display, Sf9 membrane polyspecificity reagent, FACS + sequencing; frameworks hold sequencing errors
Outline: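 Galactose induction of a Saccharomyces cerevisiae BJ5465 synthetic nanobody display library ran 36–48 hours. The cells were then stained for 1 hour at 4 °C with 10% biotinylated, detergent-solubilized Sf9 membrane reagent, pulled down on streptavidin microbeads and FACS-sorted into low and high (top ~1%) gates on expression and reagent-binding fluorescence. Labels for polyreactivity follow the gate of origin.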

Sequence	polyreactivity (PSR sort gate)
QVQLVESGGGLVQAGGSLRLSCAASGRTFSAYAMGWYRQAPGKERELVARITSVDSTNYADSVKGRFTISRDNAKNSVYLQMNSLKPEDTAVYDCNATFGYPFVDYDDYWGQGTQVTVSS	low polyreactivity
QGQLVDSGGGLVQAAGSLRLSCDASGRTFVYNDMGWYRQAPGKERELVATISVSGCSTYYADSVKGRFTISRDNAKNTVYLQMISLKPEDTAVYYCAARRTWYEDHDYWGQGTQVTVSS	low polyreactivity
QVQLVESGGGLVQAGGSLRLSCAASGITFSSYVMGWYRQAPGKERELDAAISRSGGITYYADSVKGRFTISRDNAKNTVYLQMNSLKPEDTAVYYCAVRYYIYRPGGYDYWGQGTQVTVSS	high polyreactivity
QVQLVESGGGLVQAGGSLRLSCAASGSILGHYAMGWYRQAPGTERELVAAISRGGSTTYYADSVKGRFTISRDNAKNTVYFQMNSLKPEDTAVYYCAARSASKMDYWGQGTQVNVSS	high polyreactivity
QVQLVESGGGLVQAGGSLRLSCAASGRIFRRYARGWYRQAPGKERELVATISRGGSNTSYADSVKGRFTISRDNAKNTVYLQMNSLKPEDTAVYYCAKGSVRYYVGYDYWGQGTQVSVSS	high polyreactivity
QVQLVESGGGLDQAAGSLRLSCAASGSNFQWYTMGWYRQAPGKERELVAAITWSGASTYYADSVKGRFTISRDNAKNTVYLQMNSLKPEDTAVYYCAADWRRGTGFYYWGQGTQVTVSS	high polyreactivity
QVQLVESGGGLVQAGGSLRLTCAASGSTFWSYGMGWYRPAPGKERELVAAITRGGSTYYADSVKGRFTISRDNAKNTVYLQMNSLIPEDTAVYYCAAGISVRWSPSYYYWGQGTQVTVSS	high polyreactivity
QVQLVESGGGLVQAGGSLRLSCAASGSIFGAYTMRWYRQAPGKERELVAAITGGGITNYADSVKGRFTISRDNAKNTVYLQMNSLKPEDTAVYYCNAGYPPQTVVVGYDYWGQGTQVTVSS	low polyreactivity
QVQLVESGGGLVQAGGSLRLSCASSVSTVKYAMGWYRQAPGKERELVAAISKSAGRTYYADSVKGRFTISRDNAKNTVYLQMNSLKPVDTAVYYCADRQSYYGDDYWGQCTQVTVSS	high polyreactivity
QVQLVESGGGLVQAGGSLRLSCAASGFTLRKYSMGWYRQAPGKEREFVATISSRAASTYYADSVKGRFTISRDNAKNTVYLQMISLKPEDTAVYYCNKVSPYRGYYWGQGTQVTVSS	high polyreactivity
QVQLVESGGGLVQAGGSLRLSCAASGFILIRNGMGCYRQAPGKERELVAAISRSGRTYYADSVKGRFTISRDNAKNTVYLQMNSLKPEDTAVYYCAKRDYLYGRYDYSGQGTQVTVSS	high polyreactivity
QVQLVESGGGLVQAGGSLRLSCAASGRISRVYAMGWYRQAPGKERELVAAITSSGGSTYADSVKGRFTISRDNAKNTVYLQMNSLKPEDTAVYYCAADSYWYRFLKSRYDYWGQGTQVTVSS	low polyreactivity
QVQLVESGGGLVQAGGSLRLSCAASGFTFTAYAMGWYRQAPGKERELVAAINWSGSRTYYADSVKGRFTISRDHAKNTVYLQMNSLKPEDTAVYYCNTATSKSSYRHYDYWGQGTQVTVSS	high polyreactivity
QVQLVESGGGLVQAGGSLRLSCAASGRIFPVNAMGCYRQAPGKEREFVSAIRGTGTSTYYADSVKGRFTISRDNAKNTVYLQMNSLKPEDTAVYYCAARGYVQYQGQNVNTFDYWGQGTQVTVSS	low polyreactivity
QVQLVESGGGLDQAGGSLRLSSAASGITFYGYDMGWYRQAPGKARELVAAITSDGITNYADSVKGRFTFSRDNAKNTVYLHMNSLKPEDTAVYYCAADLSFYRRYEWYYYWGQGTQVTVSS	low polyreactivity
QVQLVESGGGLVQAGGSLRLSCAASGRIFGPYTMGWYRQAPGKERELVAAIRSSGTSTYYADSVKGRFTISRDNAKNTVYLQMNSLKPEDTAVYYCNRARSSSRYDYWGQGTQVTVSS	low polyreactivity
QVQLVESGGGLVQAGGSLRLSCAASGINFVKYTMGWYRQAPGKERELVAAITWTVGSTYYADSVKGRFTISRDNAKNTVYFQMNSLKPEDTAVYYCAARYYYWGQGTQVTGSS	high polyreactivity
QVQLVESGGGLVQAGGSLRLTCAASGYTFYSYAMGWYRQAPGKERELVAAIRTGGGTNYADSVKGRFTISRDNAMNTVYLQMNSLKPEDTAVYYCAADSFDPAGHVDYWGQGTQVTVSS	low polyreactivity
QVQLVESGGGLVQAGGSLRLSCAASGRTLGQNAMGWYRQAPGKERELVASIRSGGITDYADSVKGRFTISRDNAKNTVYLQMNCLKPEDTAVYYCAADTYGYQGSAGGHWGQGTQVTVSS	low polyreactivity
QVQLVESGGGLVQAGGSLRLSCAASGFTFYYYTMGWYRQAPVKERELVAGITSRGGSTTYADSVKARFTISLDNAKNTVYLQMNSLKPEDTAVYYCNPLWAVHSGYDYLGQGTQVTVSS	high polyreactivity
QVQLVESGGGLVQAGGSLRLSCAASGYTFVTNAMGWYRQAPGKERELVAAITTVGSTNYADSVKGRFTISRDNAKNTVYLQMNSLKPEDTAVYYCNANWYEWYDWGQGTQVTVSS	low polyreactivity
QVQLVESGGGLVQAGGSLRLSSAASGLTFLGYTMGWYRQAPGKARELVAAINYSGGSTYYADSVKGSFTISRDNAKNTVYLQMNSLKPEDPAVYYCAARRAVSGGVRMYYWGQGTQVTVSS	high polyreactivity

Sequence	polyreactivity (PSR sort gate)
QVQIVESGGVLDHAGGSLRLSCAATVGTSIPNAMGWYRQAPGKERELVAAITRSGGRTYYADSVKGRFTISRDNATNTVYLQMNSLKREDTAVYYCAARVRTTSVRGRYDYWGQGTQVTVSS	high polyreactivity
QVQLVESGGGLVQAGGSLRLSCAASGSIFWGTAMGWERQAPGKERELVAAISWSGGSTYYADSVKGRFTISRDNAKNTVDLQMHSLKPEDTAVYYCAARFKRVGSIPYYYWGQGTQVTVSS	high polyreactivity
QVQLVESGGGLVQAGGSLRLSCAASGRTFSAYAMGWYRQAPGKEMELVARITSVDSTNYADSVKGRFTISRDNAKNTVYLQMNSLKPEDTAVYYCNATFGYPFVDYDDYWGQGTQVTVSS	low polyreactivity
QVQLVESGGGLVQAGGSLRLSCAASGRIFLTYAMGWYRQAPGKERELVAAITDNGGDTYYADSVKGRFTISRDNAKNTVYLQMNSLKPEDTAVYYCAKTTLSVAGLDFDYWGQGTQVTVSS	low polyreactivity
QVQLVESGGGLVQAGGSLRLSCAASGSIFRPYAMGWYRQAPGKERELVAAITSGGRTNYADSVKGRFTISRDNAKNTVYLQMNSLKPEDTAVYYCAKTGSYAKIRPNNDYWGQGTQVTVSS	low polyreactivity
QVQLVESGGGLVQEGGSLRLSCAASVRIFSDYAMGWYIQAPGKERELVATITSGDSTNYADSVKGRFTISRDNAKNTVYLQMNSLKPEDNAVYYFNADRFADYDYWGQGTQVTVSS	low polyreactivity
QVQLVESGGGLVQAGGSLRISCAASGSIFHFNAMGWYRQAPGKERELVARISIGGGSTYYADSVKGRFTISRDNAKNTVYFQMKSLKPEDTAVYYCGVDGSPRYKYDYWGQGTQVNVSS	high polyreactivity
QVQLVESGGGLVQAGGSLRLSCAASGLTFIPNAMGWDRQAPGKERELVAAISGTGGSTYYADSVKGRFTISRDNAKNTVYLQMNSLKPEDTAVYYCAARRRYKSGYWGQGTQVTVSS	high polyreactivity
QVQLVESGGGLVHAGGSLRLSCAACGSIYKYNAMGWYRQAPGKERELVAAISYSGCSTYYSDSVNGRFTISRDNAKNTVYLQMNSLKPEDTAVYYCAKSPRASQYNMYDYWGQGTKVTVSS	high polyreactivity
QVQLVESGGGLVQAGGSLRLSCAASGSIFRYNAMGWYRQAPGKETELVAAISASGGRTHYADSVKGRFTISRDNAKNTVYLQMNSLKPEDTAVYYCAAATYRGTSLYGYWGQGTQVTVSS	high polyreactivity
QVQLEESGGGLVQAGGSLRLSCAASGFIFQYNAMGWYRQAPGKEREFVDAINYSGGNTYYADSVKGRFTISRDTAKNTVYLQMNSLKPEDTAVYYCNVRLWYGRWWYNRYNYWGQGTQVTVSS	high polyreactivity
QVQLVESGGGIVQAGGSLRLSWAASGRNFLDYTMGWYRQAHGKERELVAAIRTSAGSTYYADSVKGRFTISRDNAKNTVYLQMNILKPEYTAVYYCAAEYYVQYYYRYDYWGQGTQVTVSS	low polyreactivity
QVQLVESGGGLVQAGGSLRLSCAASGRIFVQYVMGWYRPAPGKERELVAAITGSDSTTYYADSVKGRFTISRDNAKNTVYLQMNSLKPEDTAVYYCNKDLWLQDDYWGQGTQVTVSS	low polyreactivity
QVQLVESGGGLVQAGGSLRLSCAASGSIFYYNVMGWYRQAPGKERELVAAISQSGVRTYYADSVKGRFTISRDNAKNTVYLQMNSLKPEDTAVYYCAAKARRLYASSYDYWGQGTQVTVSS	high polyreactivity
QVQLVESGGGLVQAGGSLRLSCAASGTFAGNALGWYRQAPGKERELVASITTGVRTYYADSGKGRFTLSRDNAKNTVYLQMHCLKPEDTAVYYCAADRIRDLEFYYWGQGTQVTVSS	low polyreactivity
QVQLVESGGGLVQAGGSLRLSCAASGSTLYTYAMGWYRQAPGKERELVATISWSGSSTYYADSVKGRFTISRDNAKNTVYLQMNSLKPEDTAVYYCNKVPGKSGVPPDYDYWGQGTQVTVSS	high polyreactivity
QVQQQESGGGLVQAGGSLRLSCAASGTIFQLTVMGRYRQASGKERELVASIDYGGNTNYADSVKGRFTISRDNAKNTVYLQMNSLKPEDTAVYYCEASSDSWTTHPYWGQGTQVTVSS	low polyreactivity
QVQLVESGGGLVQAGGSLRLSCAASGSIFGENAMGRYRQAPGKERELVAAITSGGSTDYADSVKGRFTISRDNAKNTVYLQMNSLKPEDTAVYYCAASGRVGPGYWYDSWGQGTQVTVSS	low polyreactivity
QVQLVESGGGLVQAGGSLRLSCAASGYIFDSNVMGWYRQAPGKERELVARIRWSGGSTYYADSVKGRFTISRDNAKNTVYLQMNSLKPEDTAVYYCNVVSYYIAGGWYEGDYWGQGTQVTVSS	low polyreactivity
QEQLQESGSGLVQAGGSLRLSCAASGNIFQDWVMGWYRQAPGKERELVAAISHGAITYYADSVKGRFTISRDNAKYTVYLQTNSLKREDTAVYYCAAYYIVEYLHGYWGQGTRVTVSS	low polyreactivity
QVQLVESGGGLVQAGGSLRLSCAASGSSLYYNAMGWYRQAPGKERELVAAISWSGGSTYYADSVKGRFTISRDNAKNTVYLQMNSLKPEDTAVSYCAADQSTVLDVGSWGQGTQVTVSS	low polyreactivity
